What is called Km is the substrate concentration at which the rate is half of its maximum. For orientation: kcat means the number of substrate molecules converted per active site and unit of time at saturation. The kcat/Km is the turnover number divided by the Michaelis constant.

Data on one substance can be found in US8765433B2, “Alcohol dehydrogenases (ADH) useful for fermentive production of lower alkyl alcohols” (priority 2009, dated 2014).

The subject of this data set is CC(C)C=O. The data set can be described thus: isobutyraldehyde reduction kinetics (A340, initial rates). Format: biochemical, Mucor circinelloides. Conditions: other: 30° C., pH 7.0, NADH specific. From the text:
This example describes preparation of ADH-gene constructs for over-expression/purification and measurement of enzyme activities using a time-course assay. Horse-liver ADH (HLADH; A-6128) was purchased from Sigma. Achromobacter xylosoxidans SadB (SadB), Saccharomyces cerevisiae ADH6 (ScADH6) and ADH7 (ScADH7), Entamoeba histolytica ADH1 (EhADH1), Bos Taurus Aldehyde Reductase (BtARD), Beijerinckia indica subsp. Indica ATCC 9039 (BiADH), Clostridium beijerinckii ADH (CbADH), Rana perezi ADH8 (RpADH8), Rattus norvegicus ADH1 (RnADH1), Thermus sp. ATN1 ADH (TADH), Phenylobacterium zucineum HLK1 ADH (PzADH), Methylocella silvestris BL2 ADH (MsADH), Acinetobacter baumannii AYE ADH (AbADH), Geobacillus sp. WCH70 ADH (GbADH), Vanderwaltozyma polyspora DSM 70294 ADH (VpADH), Mucor circinelloides ADH (McADH), and Rhodococcus erythropolis PR4ADH (ReADH) were the candidates for which subclones were prepared for protein expression and purification.
As a routine practice, the crude extracts and purified proteins were assayed for butanol oxidation activity, in order to ensure that the recombinant proteins were active throughout the purification process. […] Alcohol oxidation activities were carried out in 50 mM sodium phosphate buffer at pH 8.8 and aldehyde reduction reactions were assayed in 190 mM potassium phosphate buffer at pH 7.0. […]
Kinetic constants of the ADH enzymes were calculated and compared to identify those candidate ADH enzymes with the most desirable properties for the conversion of isobutyraldehyde to isobutanol in the last step of the engineered pathway for isobutanol production. […] The kcat/KM is derived from the individual numbers of kcat and KM and not an experimentally determined value. […]
Seven additional candidate ADH enzymes were synthesized, expressed, and assayed according to methods such as described in Example 2. […] A comparison of KM, KI, and kcat/KM for each candidate enzyme as compared to the same parameter for SadB are given in Table 9 as a percentage of the values determined (Table 7) for SadB. […]

As to “Mucor circinelloides ADH (McADH), SEQ ID NO: 39 (Mucor circinelloides)”, the Km was determined as 30 mM, the kcat worked out at 151 s⁻¹ and the catalytic efficiency (kcat/Km) was determined as 5000 M⁻¹ s⁻¹.
